This test has as its target ANT4044-DOTA (human). As to the kind of experiment: SPR; Biacore T200, single-cycle kinetics, 25 °C, HBS-EP+; antibody-DOTA captured on a Protein G chip (~50 RU); PSMA as analyte, three-point 2-fold dilution 12.5-50 nM, 40 uL/min; association 200 s, dissociation 1500 s; Langmuir 1:1 fit. In general terms: SPR reads the build-up and loss of mass on a sensor chip optically.

ANT4044-DOTA (human), sequence (heavy, as listed by the source, chain 1 of 2): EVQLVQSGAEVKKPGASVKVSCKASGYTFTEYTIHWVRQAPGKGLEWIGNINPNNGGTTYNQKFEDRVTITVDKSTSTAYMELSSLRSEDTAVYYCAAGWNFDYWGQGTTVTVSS
ANT4044-DOTA (human), sequence (light, as listed by the source, chain 2 of 2): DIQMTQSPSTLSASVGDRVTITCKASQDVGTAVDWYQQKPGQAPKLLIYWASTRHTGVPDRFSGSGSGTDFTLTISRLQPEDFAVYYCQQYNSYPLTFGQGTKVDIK

In the case of cynomolgus PSMA (natural protein), the equilibrium dissociation constant (Kd) stood at 2.68 nM, the koff was 0.000187 s⁻¹ and the kon was determined as 69700 M⁻¹ s⁻¹.

For orientation: Kd means the equilibrium constant for the complex coming apart. A higher Kd goes with lower affinity. In general, koff refers to the first-order rate constant of dissociation. Read a low koff as slow dissociation. By kon is commonly meant a measure of how fast the partners come together.
